Results on three substances are retold here after paper PMC4371549.

Holding throughout (experiment): resonant mirror detection
Experiment [1] has as its target cytoplasmic domain of band 3 (UniProt P02730).
Experiment [2] concerns the target cytoplasmic domain of CD44 (UniProt P16070).
Experiment [3] concerns the target cytoplasmic domain of glycophorin C (UniProt P04921).
Experiment [4] concerns the target p55 (UniProt Q00013).
Experiment [5] deals with cytoplasmic domain of band 3 (UniProt P02730). This is another data set of the same source.
Sequence of cytoplasmic domain of band 3 (P02730 1-403): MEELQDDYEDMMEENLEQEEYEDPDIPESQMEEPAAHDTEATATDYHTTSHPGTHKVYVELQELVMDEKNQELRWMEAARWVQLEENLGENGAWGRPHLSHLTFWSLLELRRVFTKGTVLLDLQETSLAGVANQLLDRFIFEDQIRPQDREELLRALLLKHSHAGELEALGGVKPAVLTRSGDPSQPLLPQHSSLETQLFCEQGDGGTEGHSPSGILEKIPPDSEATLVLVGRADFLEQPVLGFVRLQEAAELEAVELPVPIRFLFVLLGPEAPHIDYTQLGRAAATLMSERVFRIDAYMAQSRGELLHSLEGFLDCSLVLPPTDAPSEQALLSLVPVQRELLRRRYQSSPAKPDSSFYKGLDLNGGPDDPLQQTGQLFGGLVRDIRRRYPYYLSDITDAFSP
Experiment [6] addresses cytoplasmic domain of CD44 (UniProt P16070). The source holds these as a separate data set.
In experiment [7] the target is cytoplasmic domain of glycophorin C (UniProt P04921). This is another data set of the same source.
Sequence of cytoplasmic domain of glycophorin C (P04921 82-128): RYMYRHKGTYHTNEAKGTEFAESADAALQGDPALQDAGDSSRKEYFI
Experiment [8] has as its target p55 (UniProt Q00013). The source holds these as a separate data set.
The target of another experiment is calmodulin (UniProt P0DP23).

Read-outs that look alike come from different tables or passages of the source.

Sequence of p55 (Q00013 whole entry, the tested form may be a part): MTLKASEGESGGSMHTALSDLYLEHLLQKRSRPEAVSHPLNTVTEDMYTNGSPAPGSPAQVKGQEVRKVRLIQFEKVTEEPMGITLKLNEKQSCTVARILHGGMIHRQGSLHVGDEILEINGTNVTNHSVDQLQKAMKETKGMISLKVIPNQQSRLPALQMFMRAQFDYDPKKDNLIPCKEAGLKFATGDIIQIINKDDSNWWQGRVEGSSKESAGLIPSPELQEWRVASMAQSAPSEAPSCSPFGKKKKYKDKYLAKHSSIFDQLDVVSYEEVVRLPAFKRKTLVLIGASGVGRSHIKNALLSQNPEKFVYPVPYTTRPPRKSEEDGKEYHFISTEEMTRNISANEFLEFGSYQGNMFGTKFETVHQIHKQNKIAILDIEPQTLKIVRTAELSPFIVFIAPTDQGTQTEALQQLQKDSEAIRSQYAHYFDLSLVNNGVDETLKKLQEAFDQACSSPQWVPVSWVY
Sequence of cytoplasmic domain of CD44 (P16070 671-742): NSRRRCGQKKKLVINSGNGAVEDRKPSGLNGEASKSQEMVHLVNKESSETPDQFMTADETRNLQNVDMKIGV

With “complex of RHP-G30 and CaM (from UniProt P11171 1-209; P0DP23 1-149)”, the dissociation constant Kd in [1] worked out at 183 nM; in [2], 314 nM; in [3], 237 nM; in the experiment with p55 [4], 113 nM; in experiment [5] it was 2190 nM; in [6], 737 nM. Also, the Kd amounted to 1480 nM in experiment [7] and 1760 nM with p55 [8]. The koff was found to be 0.012 s⁻¹ in [1], 0.016 s⁻¹ in experiment [2], 0.019 s⁻¹ in [6] and 0.012 s⁻¹ with p55 [8]. The values for the kon in [2] and in [6] were 51000 M⁻¹ s⁻¹ and 25000 M⁻¹ s⁻¹, respectively.

In the case of “GHP-G30 (headpiece region and 30kDa domain of 4.1G) (from UniProt O43491 1-1005) (domain or fragment)”, in the experiment with calmodulin, the Kd is 2970 nM and the kon came out at 180000 M⁻¹ s⁻¹.

In the case of “G30 (30kDa membrane binding domain of protein 4.1G) (from UniProt O43491 1-1005) (domain or fragment)”, the Kd with calmodulin was 190 nM.
